Assay [1] concerns the target T1, recombinant human PD-1 Fc chimera (human, UniProt Q15116 25-167).
T1 construct: Bought protein (R&D 1086-PD in the HTRF assay); also called human PD-1-hu Fc; huPD-1Fc; not shown: human Fc
Kind of assay: BLI Octet, human PD-1-hu Fc amine coupled to biosensors, 1:1 model. As to the method: Binding kinetics for Humabody® 1.1a to human PD-1-hu Fc are shown below. These were measured in real-time bio-layer interferometer based biosensor Octet (ForteBio). Recombinant human PD-1-hu Fc was immobilized by standard amine coupling to amine reactive biosensors in 10 mM sodium acetate at pH 5.0. All the binding studies were performed in HBS-ET Octet kinetics buffer. Biosensors were always washed in Octet kinetics buffer in between different steps. A seven point, two-fold dilution series of each Humabody® VH was made with a top concentration of 30 nM. The contact time for each of the association steps was 300 seconds and the dissociation step was varied between 400-600 seconds. Kinetic association (kₐ) and dissociation (kd) rate constants were determined by processing and fitting the data to a 1:1 binding model using ForteBio Analysis software.
In general terms: BLI is a label-free optical method that tracks binding on a fibre tip over time.

For assay [2], the target named is T1, recombinant human PD-1 Fc chimera. As to the kind of experiment: SPR Biacore T200, single cycle kinetics, human PD-1-hu Fc amine coupled to CM5, 1:1 model. The procedure: Binding kinetics of certain humabodies binding to human PD-1-hu Fc were measured by surface plasmon resonance (SPR) technology using Biacore T200 instrument (GE Healthcare). Recombinant human PD-1-hu Fc was immobilized by standard amine coupling to CM5 sensors chip (GE Healthcare) using 0.1 mg/ml solution of antigen in 10 mM sodium acetate at pH 5.5. For the reference flow cell, a blank immobilisation was carried out. Single cycle kinetics assays were used to study the interaction, a five point, three-fold dilution series of each Humabody® VH was made with a top concentration of 30 nM. The binding kinetics were followed by flowing the Humabody® VH over the chip surface in HBS EP+ buffer at a flow rate of 30 μl/min. The contact time for each of the association steps was 180 seconds and the dissociation step was varied between 1200-3600 seconds. The data was fitted to a 1:1 binding model after double reference subtraction using the Biacore T200 Evaluation software.
Background: Surface plasmon resonance follows binding to a sensor surface in real time, without labels.

Assay [3] addresses T2, human PD-1 expressed on cells (CHO TREX human PD1 cell line, full-length human PD-1 sequence) (human, UniProt Q15116 21-288).
T2 construct: Also used for human PD-1 on Jurkat reporter cells, on PathHunter cells and on PHA-stimulated human CD4+ T cells; also called CHO human PD1 cells; CHO human PD-1 cells
As to the kind of experiment: FMAT: inhibition of PDL-2 (100 pM) binding to CHO human PD-1 cells. The procedure:
(§1) Purified VH were serially diluted in FMAT assay buffer and tested for binding to CHO human PD-1 cells as described above and for inhibition of human PD-L1/PD-L2 binding to CHO human PD-1 cells. All reagents and serially diluted VH were prepared in FMAT assay buffer. VH, buffer (total binding controls) or excess competitor (non-specific binding control) were incubated with 400 pM human Fc tagged human PD-L1 or 100 pM PDL-2, 4 nM anti human Fc-Alexa Fluor-488 and 2000 per well CHO human PD-1 DRAQ5 stained cells in a 384 well black clear-bottomed assay plates. Plates were incubated for 2 hours at room temperature then fluorescence measured in the FL2 (502 nm-537 nm) and FL5 (677-800 nm) channels on the Mirrorball plate reader (TTP) following excitation at 488 nm and 640 nm. Data was expressed as a % of the total binding control (i.e. % control) after subtraction of the background signal determined from the non-specific binding control wells. The results are shown in FIG. 5 and in Tables 8 and 9 below.

Assay [4] addresses T2, human PD-1 expressed on cells (CHO TREX …). As to the kind of experiment: FMAT: inhibition of human Fc tagged human PD-L1 (400 pM) binding to CHO human PD-1 cells. The procedure: as §1
Assay [5] shares this target. Kind of assay: cell-based or functional assay.
Assay [6] shares this target. As to the kind of experiment: FMAT: inhibition of human Fc tagged human PD-L1 (400 pM) binding to CHO human PD-1 cells. The procedure:
as §1
This is another data set of the same source.

Assay [7] concerns the target T3, cynomolgus PD-1 recombinant protein (Acro Biosystems cat no. PD-1-C5254) (cynomolgus).
T3 construct: Bought protein; also called cyno PD1
Kind of assay: HTRF binding assay, 2 nM recombinant PD1, anti His-D2 and anti human-Fc cryptate. The procedure:
(§2) Purified VH were tested for their ability to bind to human PD1 (R&D Systems cat no. 1086-PD), cynomolgus PD-1 (Acro Biosystems cat no. PD-1-C5254) and mouse PD1 (R&D Systems cat no. 1021-PD) in an HTRF Binding assay format. All reagents and serially diluted VH were prepared in assay buffer containing PBS, 0.1% BSA and 0.4M Potassium Fluoride. Samples or assay buffer (non-specific binding) were incubated with 2 nM human/cynomolgus or mouse PD1, 1 nM Anti human-Fc Cryptate PAb (Cisbio cat. no. 61HFCKLB) and 30 nM anti His-D2 (CisBio cat no 61HISDLA) in black 384-shallow well assay plates for a minimum of 3 hours at room temperature. Time-resolved fluorescent emission at 620 nm and 665 nm was measured following excitation at 337 nm on the BMG PHERAstar plate reader. The HTRF ratio were calculated ((665 nm emission/620 nm emission)*10000) and the data corrected for (non-specific binding) to give the specific binding signal.
A general note: TR-FRET usually uses a lanthanide donor and a delayed reading to cut background.

The target in assay [8] is T1, recombinant human PD-1 Fc chimera. The assay is described as above. The procedure:
as §2

The target of assay [9] is T4, Strep tagged recombinant human PD-1 (human, UniProt Q15116 25-167, limits assumed).
T4 construct: whole entry named; also called Strep tagged human PD-1; not shown: Strep tag
T4 sequence (Q15116 25-167 limits assumed): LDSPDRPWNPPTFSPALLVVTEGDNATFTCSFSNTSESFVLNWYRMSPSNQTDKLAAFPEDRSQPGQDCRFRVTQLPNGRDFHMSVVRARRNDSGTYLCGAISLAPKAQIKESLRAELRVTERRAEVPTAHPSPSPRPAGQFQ
As to the kind of experiment: SPR Biacore T200, single cycle kinetics, Strep tagged human PD-1 amine coupled, 1:1 model. The procedure:
Single cycle kinetics assays were used to study the interaction between human PD-1 with Humabody VHs on a Biacore T200 instrument (GE Healthcare). Strep tagged recombinant human PD-1 was amine coupled to one flow cell of a CM-5 chip to create a low density surface (14 RU) using standard Biacore reagents. For the reference flow cell, a blank immobilisation was carried out. A five point, three-fold dilution series of each Humabody VH was made with a top concentration of 25 nM. The binding kinetics were followed by flowing the Humabody VH over the chip surface in HBS EP+ buffer at a flow rate of 30 μl/min. The contact time for each of the association steps was 180 seconds and the dissociation step was 3300 seconds. The data was fitted to a 1:1 binding model after double reference subtraction using the Biacore T200 Evaluation software.

Assay [10] addresses T5, mouse PD-1 protein (R&D Systems cat no. 1021-PD) (mouse, UniProt Q02242 25-167).
T5 construct: Bought protein
T5 sequence (looked up): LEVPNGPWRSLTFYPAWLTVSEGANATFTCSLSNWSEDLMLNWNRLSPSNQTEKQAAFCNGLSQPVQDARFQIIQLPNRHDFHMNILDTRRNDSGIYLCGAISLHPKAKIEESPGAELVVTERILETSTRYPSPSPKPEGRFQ
As to the kind of experiment: HTRF binding assay, 2 nM mouse PD1. The procedure: as §2

Assay [11] deals with T1, recombinant human PD-1 Fc chimera. Kind of assay: SPR Biacore T200, single cycle kinetics, human Fc tagged PD-1 captured on Protein G, 1:1 model. As to the method:
Single cycle kinetics assays were used to study the interaction between human Fc tagged human PD-1 with Humabody® VH on a Biacore T200 instrument (GE Healthcare). Protein G was amine coupled to two flow cells of a CM-5 chip. Human Fc tagged recombinant human PD-1 was captured onto one of the flow cells. The other was used as the reference flow cell. A five point, three-fold dilution series of each Humabody® VH was made with a top concentration within the range of 50 to 150 nM. The binding kinetics were followed by flowing the Humabody® VH over the chip surface in HBS EP+ buffer at a flow rate of 30 μl/min. The contact time for each of the association steps was 180 seconds and the dissociation step was 3600 seconds. The data was fitted to a 1:1 binding model after double reference subtraction using the Biacore T200 Evaluation software.

The results in this text go back to patent publication US20220306744A1 (CRESCENDO BIOLOGICS, published 2022).

T2 sequence (Q15116 21-288): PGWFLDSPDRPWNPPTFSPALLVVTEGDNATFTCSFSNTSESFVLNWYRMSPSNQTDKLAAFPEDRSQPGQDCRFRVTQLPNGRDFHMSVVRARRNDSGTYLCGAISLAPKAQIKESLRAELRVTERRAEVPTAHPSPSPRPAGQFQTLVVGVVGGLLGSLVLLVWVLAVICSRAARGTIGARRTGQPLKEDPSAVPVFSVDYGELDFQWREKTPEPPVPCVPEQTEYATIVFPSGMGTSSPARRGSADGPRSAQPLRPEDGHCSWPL
T1 sequence (Q15116 25-167 limits assumed, change not shown): as the sequence (Q15116 25-167 limits assumed) above

B1: 1.1a (VHH)
VHH: EVQLLESGGGSVQPGRSLRLSCAASGFTFDDHAMHWVRQAPGKGLEWVSGISWNSGSMGYADSVKDRFTISRDNAKSSLYLQMNSLRAEDTALYYCVREKGPGLTGSTADYYGLDVWGQGTMVTVSS
notes: also called Humabody 1.1a; VH single domain antibody 1.1a
As usually defined, the koff is the first-order rate constant of dissociation. A word on the kon: it is the second-order rate constant of association. By Kd is commonly meant the free concentration of one partner at which half of the binding sites on the other are occupied at equilibrium, for simple one-to-one binding. Consider B1, for which, in [1], the koff was 0.000901 s⁻¹ and the kon turned out to be 459000 M⁻¹ s⁻¹. In assay [2], the Kd worked out at 0.676 nM, the off-rate (koff) was 7.35e-05 s⁻¹ and the association rate constant (kon) was found to be 109000 M⁻¹ s⁻¹.

B2: 1.57b-4GS-1.1a (other)
chain: QVQLVESGGGLVKPGGSLRLSCAASGFTFSDNSMTWMRQAPGKGLEWVSYISSGGGVIFYADSVKGRFTISRDNAKNSLYLQMNSLRADDTAVYYCAREAPLRLGESPHDAFDISGQGTMVTVSSGGGGSGGGGSGGGGSGGGGSEVQLLESGGGSVQPGRSLRLSCAASGFTFDDHAMHWVRQAPGKGLEWVSGISWNSGSMGYADSVKDRFTISRDNAKSSLYLQMNSLRAEDTALYYCVREKGPGLTGSTADYYGLDVWGQGTMVTVSS
notes: Biparatopic VH-linker-VH
The IC50 is the concentration at which inhibition is half-maximal. Lower therefore signals greater potency. Broadly, the EC50 is the concentration at which the effect is half-maximal. Regarding B2, the IC50 was found to be 1.2 nM in assay [3], 0.9 nM in [4] and 1.3 nM in [6]. Further, the “EC50 (M), NFAT-Luciferase reporter gene assay” value in [5] was determined as 1.7e-09 M. The results for the EC50 in [7] and in assay [8] were 2.1 nM and 1.2 nM, respectively. Besides, the Kd is 0.111 nM in assay [9] and 0.0594 pM in assay [11]. Besides, the koff is 4.86e-05 s⁻¹ in [9] and 4.59e-08 s⁻¹ in assay [11]. Besides, the kon in [9] was determined as 437000 M⁻¹ s⁻¹; in [11], 773000 M⁻¹ s⁻¹. Moreover, the binding result in assay [10] is given as “no binding”.

B3: 1.1b-6GS-1.1a (other)
chain: QVQLVESGGGLVKPGGSLRLSCAASGFTFSDYTMTWMRQAPGKGLEWVSYISTGGTIKYYTDSVKGRFTISRDNAKNSLYLQMNSLRADDTAVYYCAREAPLRLGESPHDAFDIWGQGTMVTVSSGGGGSGGGGSGGGGSGGGGSGGGGSGGGGSEVQLLESGGGSVQPGRSLRLSCAASGFTFDDHAMHWVRQAPGKGLEWVSGISWNSGSMGYADSVKDRFTISRDNAKSSLYLQMNSLRAEDTALYYCVREKGPGLTGSTADYYGLDVWGQGTMVTVSS
notes: Biparatopic VH-linker-VH
As to B3, in assay [5], the “EC50 (M), NFAT-Luciferase reporter gene assay” value was 1.1e-08 M. Moreover, the EC50 in assay [7] came out at 0.92 nM. The EC50 in assay [8] turned out to be 0.5 nM. Further, in assay [10], the binding result is given as “no binding”. Also, in assay [2], the Kd was 0.028 nM, the koff was 6.39e-06 s⁻¹ and the kon was found to be 228000 M⁻¹ s⁻¹.

B4: 1.57b (VHH)
VHH: QVQLVESGGGLVKPGGSLRLSCAASGFTFSDNSMTWMRQAPGKGLEWVSYISSGGGVIFYADSVKGRFTISRDNAKNSLYLQMNSLRADDTAVYYCAREAPLRLGESPHDAFDISGQGTMVTVSS
On to B4, for which the IC50 was 2.3 nM in assay [3], 1.8 nM in [4] and 4.2 nM in assay [6]. Besides, the Kd turned out to be 0.0782 nM in assay [9], 0.000124 nM in assay [2] and 44.1 pM in [11]. In addition, the results for the koff in assay [9], in assay [2] and in assay [11] were 3.17e-05 s⁻¹, 6.68e-08 s⁻¹ and 2.11e-05 s⁻¹, respectively. Further, the figures for the kon in assay [9], in assay [2] and in [11] were 405000 M⁻¹ s⁻¹, 537000 M⁻¹ s⁻¹ and 479000 M⁻¹ s⁻¹, respectively.
